From patent US20120172295A1 (INDIANA UNIVERSITY RESEARCH AND TECHNOLOGY, published 2012)
Like-named read-outs stand apart in the source and are kept apart here. Starred links: 1 amine or outer side, 2 acyl side, 3 side chain; linkers in the order of their positions; H or OH if unused. Positions of bridges follow the written chain, without caps; N, C: chain ends. Non-standard residues stand in square brackets, D forms with d. No end group written: not given here. *: point of attachment. Dab(Ac) = acetyldiaminobutanoic acid, CC(=O)NCC[C@H](N[*:1])C(=O)[*:2]; C(Acm) = acetamidomethyl-cysteine, CC(=O)NCSC[C@H](N[*:1])C(=O)[*:2]; Orn(Ac) = acetylornithine, CC(=O)NCCC[C@H](N[*:1])C(=O)[*:2]; Isobutyryl(2-imidazol-4-yl) = CC(C)(C(=O)*)c1c[nH]cn1; Dap(CONH2) = NC(=O)NC[C@H](N)C(=O)O; Stearoyl = CCCCCCCCCCCCCCCCCC(=O)*; Palmitoyl = CCCCCCCCCCCCCCCC(=O)*; Met(O) = CS(=O)CC[C@H](N)C(=O)O; Myristoyl = CCCCCCCCCCCCCC(=O)*; Nle = CCCC[C@H](N)C(=O)O; DMIA = not defined here; Dab = NCC[C@H](N)C(=O)O; PEG = not defined here; Aib = CC(C)(N)C(=O)O

B1: Chimera DMIA1, Cys24 (SEQ ID NO: 519), parent w/o PEG (peptide)
peptide: [Isobutyryl(2-imidazol-4-yl)]SQGTFTSDYSKYLDEQAAKEFICWLMNT-NH2
SMILES: CC[C@H](C)[C@H](NC(=O)[C@H](Cc1ccccc1)NC(=O)[C@H](CCC(=O)O)NC(=O)[C@H](CCCCN)NC(=O)[C@H](C)NC(=O)[C@H](C)NC(=O)[C@H](CCC(N)=O)NC(=O)[C@H](CCC(=O)O)NC(=O)[C@H](CC(=O)O)NC(=O)[C@H](CC(C)C)NC(=O)[C@H](Cc1ccc(O)cc1)NC(=O)[C@H](CCCCN)NC(=O)[C@H](CO)NC(=O)[C@H](Cc1ccc(O)cc1)NC(=O)[C@H](CC(=O)O)NC(=O)[C@H](CO)NC(=O)[C@@H](NC(=O)[C@H](Cc1ccccc1)NC(=O)[C@@H](NC(=O)CNC(=O)[C@H](CCC(N)=O)NC(=O)[C@H](CO)NC(=O)C(C)(C)c1c[nH]cn1)[C@@H](C)O)[C@@H](C)O)C(=O)N[C@@H](CS)C(=O)N[C@@H](Cc1c[nH]c2ccccc12)C(=O)N[C@@H](CC(C)C)C(=O)N[C@@H](CCSC)C(=O)N[C@@H](CC(N)=O)C(=O)N[C@H](C(N)=O)[C@@H](C)O
B2: AIB2, AIB16, K10(C18) Gluc Amide (peptide)
peptide: H[Aib]QGTFTSDK(Stearoyl)SKYLD[Aib]RRAQDFVQWLMNT-NH2
modifications: N-terminus assumed
SMILES: CCCCCCCCCCCCCCCCCC(=O)NCCCC[C@H](NC(=O)[C@H](CC(=O)O)NC(=O)[C@H](CO)NC(=O)[C@@H](NC(=O)[C@H](Cc1ccccc1)NC(=O)[C@@H](NC(=O)CNC(=O)[C@H](CCC(N)=O)NC(=O)C(C)(C)NC(=O)[C@@H](N)Cc1c[nH]cn1)[C@@H](C)O)[C@@H](C)O)C(=O)N[C@@H](CO)C(=O)N[C@@H](CCCCN)C(=O)N[C@@H](Cc1ccc(O)cc1)C(=O)N[C@@H](CC(C)C)C(=O)N[C@@H](CC(=O)O)C(=O)NC(C)(C)C(=O)N[C@@H](CCCNC(=N)N)C(=O)N[C@@H](CCCNC(=N)N)C(=O)N[C@@H](C)C(=O)N[C@@H](CCC(N)=O)C(=O)N[C@@H](CC(=O)O)C(=O)N[C@@H](Cc1ccccc1)C(=O)N[C@H](C(=O)N[C@@H](CCC(N)=O)C(=O)N[C@@H](Cc1c[nH]c2ccccc12)C(=O)N[C@@H](CC(C)C)C(=O)N[C@@H](CCSC)C(=O)N[C@@H](CC(N)=O)C(=O)N[C@H](C(N)=O)[C@@H](C)O)C(C)C
B3: E16, K20 AIB2, Cys24 Lactam (SEQ ID NO: 517), parent w/o PEG (peptide)
peptide: H[Aib]QGTFTSDYSKYLDERRAKDFVCWLMNT-NH2
modifications: lactam 16-20; N-terminus assumed
SMILES: CSCC[C@H](NC(=O)[C@H](CC(C)C)NC(=O)[C@H](Cc1c[nH]c2ccccc12)NC(=O)[C@H](CS)NC(=O)[C@@H](NC(=O)[C@H](Cc1ccccc1)NC(=O)[C@H](CC(=O)O)NC(=O)[C@@H]1CCCCNC(=O)CC[C@H](NC(=O)[C@H](CC(=O)O)NC(=O)[C@H](CC(C)C)NC(=O)[C@H](Cc2ccc(O)cc2)NC(=O)[C@H](CCCCN)NC(=O)[C@H](CO)NC(=O)[C@H](Cc2ccc(O)cc2)NC(=O)[C@H](CC(=O)O)NC(=O)[C@H](CO)NC(=O)[C@@H](NC(=O)[C@H](Cc2ccccc2)NC(=O)[C@@H](NC(=O)CNC(=O)[C@H](CCC(N)=O)NC(=O)C(C)(C)NC(=O)[C@@H](N)Cc2c[nH]cn2)[C@@H](C)O)[C@@H](C)O)C(=O)N[C@@H](CCCNC(=N)N)C(=O)N[C@@H](CCCNC(=N)N)C(=O)N[C@@H](C)C(=O)N1)C(C)C)C(=O)N[C@@H](CC(N)=O)C(=O)N[C@H](C(N)=O)[C@@H](C)O
B4: AIB2, AIB16, K10(C14) Gluc Amide (peptide)
peptide: H[Aib]QGTFTSDK(Myristoyl)SKYLD[Aib]RRAQDFVQWLMNT-NH2
modifications: N-terminus assumed
SMILES: CCCCCCCCCCCCCC(=O)NCCCC[C@H](NC(=O)[C@H](CC(=O)O)NC(=O)[C@H](CO)NC(=O)[C@@H](NC(=O)[C@H](Cc1ccccc1)NC(=O)[C@@H](NC(=O)CNC(=O)[C@H](CCC(N)=O)NC(=O)C(C)(C)NC(=O)[C@@H](N)Cc1c[nH]cn1)[C@@H](C)O)[C@@H](C)O)C(=O)N[C@@H](CO)C(=O)N[C@@H](CCCCN)C(=O)N[C@@H](Cc1ccc(O)cc1)C(=O)N[C@@H](CC(C)C)C(=O)N[C@@H](CC(=O)O)C(=O)NC(C)(C)C(=O)N[C@@H](CCCNC(=N)N)C(=O)N[C@@H](CCCNC(=N)N)C(=O)N[C@@H](C)C(=O)N[C@@H](CCC(N)=O)C(=O)N[C@@H](CC(=O)O)C(=O)N[C@@H](Cc1ccccc1)C(=O)N[C@H](C(=O)N[C@@H](CCC(N)=O)C(=O)N[C@@H](Cc1c[nH]c2ccccc12)C(=O)N[C@@H](CC(C)C)C(=O)N[C@@H](CCSC)C(=O)N[C@@H](CC(N)=O)C(=O)N[C@H](C(N)=O)[C@@H](C)O)C(C)C

Experiments:
Test in all cases: cell-based or functional assay
[1] = molecular target: T1, GLP-1 receptor (UniProt P43220 24-463, limits assumed)
[2] = molecular target: T2, glucagon receptor (UniProt P47871 26-477, limits assumed)
T2 sequence (P47871 26-477 limits assumed): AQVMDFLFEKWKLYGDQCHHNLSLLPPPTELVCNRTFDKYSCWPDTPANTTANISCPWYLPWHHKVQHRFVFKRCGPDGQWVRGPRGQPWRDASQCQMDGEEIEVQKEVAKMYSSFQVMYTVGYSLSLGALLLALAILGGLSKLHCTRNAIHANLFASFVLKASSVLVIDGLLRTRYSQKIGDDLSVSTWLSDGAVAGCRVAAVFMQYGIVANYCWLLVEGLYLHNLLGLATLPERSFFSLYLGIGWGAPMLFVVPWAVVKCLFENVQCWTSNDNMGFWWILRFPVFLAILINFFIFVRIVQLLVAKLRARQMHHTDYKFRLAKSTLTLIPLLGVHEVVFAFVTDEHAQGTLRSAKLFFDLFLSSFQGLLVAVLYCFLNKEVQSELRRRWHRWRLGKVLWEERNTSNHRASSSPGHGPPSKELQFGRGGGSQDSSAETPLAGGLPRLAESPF

[3] = molecular target: T1, GLP-1 receptor; remark: listed apart in the source
[4] = molecular target: T2, glucagon receptor; remark: listed apart in the source
[5] = molecular target: T2, glucagon receptor; remark: listed apart in the source

Binder	% Potency Relative to Native [1]	% Potency Relative to Native [2]	% Activity of GLP-1 [3]	% Activity of Glucagon [4]	% activity [5]	further results
H[Aib]QGTFTSDYSKYLDERRAKDFVC(PEG)WLMNT-NH2 (lactam 16-20; reading uncertain) [E16, K20 AIB2, Cys24 Lactam (SEQ ID NO: 517), parent w/PEG]	31%	15.8%				
B1	64.5%	28.9%				
H[Aib]QGTFTSDK(Palmitoyl)SKYLD[Aib]RRAQDFVQWLMNT-NH2 [AIB2, AIB16, K10(C16) Gluc Amide (SEQ ID NO: 611)]			72.3%	170%		EC50 [4]: 0.02 nM
B2			88.9%	212%		EC50 [3]: 0.009 nM; EC50 [4]: 0.016 nM
[Isobutyryl(2-imidazol-4-yl)]SQGTFTSDYSKYLDEQAAKEFIC(PEG)WLMNT-NH2 (reading uncertain) [Chimera DMIA1, Cys24 (SEQ ID NO: 519), parent w/PEG]	19.3%	6.9%				
[DMIA]SQGTFTSDYSKYLDERRAKDFVCWLMNGGPSSGAPPPS-NH2 (lactam 16-20; reading uncertain) [E16, K20 DMIA1, Gly29,30 Cys24 Cex Lactam (SEQ ID NO: 513), parent w/o PEG]	78.3%	116%				
HXQGTFTSDKSKYLDERRAKDFVQWLMNT (d-Ser at 2; Lys 10-C14 acyl; C-terminal amide) [dS2, E16/K20, K10(C14) Gluc Amide]			6.3%	21.9%		EC50 [3]: 0.128 nM; EC50 [4]: 0.155 nM
[Isobutyryl(2-imidazol-4-yl)]SQGTFTSDYSKYLDERRAKDFVC(PEG)WLMNGGPSSGAPPPS-NH2 (lactam 16-20; reading uncertain; also: PEG size not given here) [E16, K20 DMIA1, Gly29,30 Cys24 Cex Lactam (SEQ ID NO: 513), parent w/PEG]	11.3%	12.6%				
HS[Dap(CONH2)]GTFTSDYSKYLDTRRAAEFVAWL[Nle]DE [Peptide J backbone, Dap(urea) at position 3 (SEQ ID NO: 596)]					13%	EC50 [5]: 0.48 nM
HS[Orn(Ac)]GTFTSDYSKYLDTRRAAEFVAWL[Nle]DE [Peptide J backbone, Orn(Ac) at position 3 (SEQ ID NO: 599)]					7%	EC50 [5]: 0.92 nM
HS[C(Acm)]GTFTSDYSKYLDTRRAAEFVAWL[Nle]DE [Peptide J backbone, C(Acm) at position 3 (SEQ ID NO: 594)]					33%	EC50 [5]: 0.18 nM
[Isobutyryl(2-imidazol-4-yl)]SQGTFTSDYSKYLDEQAAKEFIAWLMNC(PEG)-NH2 (reading uncertain) [Chimera DMIA1, Cys29 (SEQ ID NO: 520), parent w/PEG]	27.3%	5.3%				
XSQGTFTSDKSKYLDERRAKDFVQWLMNT (DMIA at 1; Lys 10-C18 acyl; [E16/K20]; C-terminal amide) [DMIA1, K10(C18), [E16/K20]-Gluc Amide]			136%	42.3%		EC50 [3]: 0.011 nM
HSQGTFTSDYSKYLDTRRAAEFVAWL[Nle]DE [Peptide J backbone, Q at position 3 (SEQ ID NO: 593)]					25%	
[DMIA]SQGTFTSDK(Myristoyl)SKYLDERRAKDFVQWLMNT-NH2 (reading uncertain) [DMIA1, K10(C14), [E16/K20]-Gluc Amide]			30%	204%		EC50 [3]: 0.05 nM
HS[Met(O)]GTFTSDYSKYLDTRRAAEFVAWL[Nle]DE [Peptide J backbone, M(O) at position 3 (SEQ ID NO: 598)]					7%	EC50 [5]: 0.91 nM
XSQGTFTSDKSKYLDERRAKDFVQWLMNT (DMIA at 1; Lys 10-C16 acyl; [E16/K20]; C-terminal amide) [DMIA1, K10(C16), [E16/K20]-Gluc Amide]			100%	392%		
HXQGTFTSDKSKYLDERRAKDFVQWLMNT (d-Ser at 2; Lys 10-C16 acyl; C-terminal amide) [dS2, E16/K20, K10(C16) Gluc Amide]			19.5%	44.7%		EC50 [3]: 0.041 nM; EC50 [4]: 0.076 nM
HSQGTFTSDYSKYLD[Aib]RRAADFVAWLMDE [Peptide K backbone, Q at position 3 (SEQ ID NO: 600)]					15%	
HS[Dab(Ac)]GTFTSDYSKYLDTRRAAEFVAWL[Nle]DE [Peptide J backbone, Dab(Ac) at position 3 (SEQ ID NO: 595)]					19%	EC50 [5]: 0.31 nM
HXQGTFTSDKSKYLDERRAKDFVQWLMNT (d-Ser at 2; Lys 10-C18 acyl; C-terminal amide) [dS2, E16/K20, K10(C18) Gluc Amide]			60%	196%		EC50 [3]: 0.025 nM
B3	96.9%	108%				
B4			33.3%	77.3%		EC50 [3]: 0.024 nM; EC50 [4]: 0.044 nM
HS[Dab](Ac)GTFTSDYSKYLD[Aib]RRAADFVAWLMDE [Peptide K backbone, Dab(Ac) at position 3 (SEQ ID NO: 601)]					86%	EC50 [5]: 0.07 nM
HSQGTFTSDYSKYLDEQAAKEFIC(PEG)WLMNT-NH2 (reading uncertain) [Chimera Cys24 (SEQ ID NO: 518), parent w/PEG]	29.3%	19.8%				
